Data from the supplement of paper PMC9876800.

system: peptide library, one residue held at a place counted from the S/T acceptor; test: relative phosphorylation of the sub-library (ratio to the mean residue at this position); human; higher = residue favoured; settings: W fixed; at +4
Method in brief: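 Spots on streptavidin membranes were phosphorimaged and quantified by densitometry to measure phosphorylation of biotinylated degenerate peptide sub-libraries by purified recombinant kinases, human or orthologue constructs. The reactions ran in 384-well plates for 90 min under kinase-specific conditions, with peptides at 50 μM and 50 μM ATP spiked with γ-32P-ATP. Relative sub-library phosphorylation is the ratio to the mean residue at that position.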

PAK1, construct: aa150-end, sequence (Q13153 150-545, looked up): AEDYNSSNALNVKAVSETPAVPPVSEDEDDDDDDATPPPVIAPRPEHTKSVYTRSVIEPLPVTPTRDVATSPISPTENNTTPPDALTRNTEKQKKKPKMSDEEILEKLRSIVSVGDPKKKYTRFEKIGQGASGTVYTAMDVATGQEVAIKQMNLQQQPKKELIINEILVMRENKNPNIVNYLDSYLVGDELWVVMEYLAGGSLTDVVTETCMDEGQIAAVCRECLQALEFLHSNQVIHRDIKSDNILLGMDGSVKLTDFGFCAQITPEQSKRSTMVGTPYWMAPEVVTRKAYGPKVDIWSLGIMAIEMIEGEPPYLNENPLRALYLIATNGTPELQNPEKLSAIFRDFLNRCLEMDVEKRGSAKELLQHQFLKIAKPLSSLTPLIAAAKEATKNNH
CAMK2D, construct: Full length, sequence (Q13557 whole entry, looked up): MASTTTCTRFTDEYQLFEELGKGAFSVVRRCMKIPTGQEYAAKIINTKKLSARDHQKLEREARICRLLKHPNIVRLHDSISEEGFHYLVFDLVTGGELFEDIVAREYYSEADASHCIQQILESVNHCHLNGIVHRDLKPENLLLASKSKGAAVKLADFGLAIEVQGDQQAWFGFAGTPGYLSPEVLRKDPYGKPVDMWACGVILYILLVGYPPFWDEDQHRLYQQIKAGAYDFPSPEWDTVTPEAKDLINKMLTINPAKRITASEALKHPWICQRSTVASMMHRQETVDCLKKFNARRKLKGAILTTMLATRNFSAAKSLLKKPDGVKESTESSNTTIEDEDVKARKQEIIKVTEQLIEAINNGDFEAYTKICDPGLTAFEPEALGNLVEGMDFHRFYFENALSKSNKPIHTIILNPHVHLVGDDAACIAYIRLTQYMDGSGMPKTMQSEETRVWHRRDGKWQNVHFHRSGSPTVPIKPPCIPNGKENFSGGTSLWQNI
CSNK1G3, construct: Full length, sequence (Q9Y6M4 whole entry, looked up): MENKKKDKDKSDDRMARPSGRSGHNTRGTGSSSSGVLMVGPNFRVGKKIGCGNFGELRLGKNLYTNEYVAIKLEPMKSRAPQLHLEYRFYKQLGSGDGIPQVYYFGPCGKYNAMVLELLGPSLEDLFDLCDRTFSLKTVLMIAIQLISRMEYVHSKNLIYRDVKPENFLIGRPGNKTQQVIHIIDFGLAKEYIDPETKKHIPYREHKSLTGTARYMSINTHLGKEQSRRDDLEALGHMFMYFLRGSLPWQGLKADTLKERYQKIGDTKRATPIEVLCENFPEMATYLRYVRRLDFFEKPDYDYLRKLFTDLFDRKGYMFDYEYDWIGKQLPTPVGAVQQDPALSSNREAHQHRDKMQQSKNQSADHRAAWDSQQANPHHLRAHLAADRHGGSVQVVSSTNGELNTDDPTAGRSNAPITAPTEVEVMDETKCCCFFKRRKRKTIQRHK
TSSK1B, construct: Full length, sequence (Q9BXA7 whole entry, looked up): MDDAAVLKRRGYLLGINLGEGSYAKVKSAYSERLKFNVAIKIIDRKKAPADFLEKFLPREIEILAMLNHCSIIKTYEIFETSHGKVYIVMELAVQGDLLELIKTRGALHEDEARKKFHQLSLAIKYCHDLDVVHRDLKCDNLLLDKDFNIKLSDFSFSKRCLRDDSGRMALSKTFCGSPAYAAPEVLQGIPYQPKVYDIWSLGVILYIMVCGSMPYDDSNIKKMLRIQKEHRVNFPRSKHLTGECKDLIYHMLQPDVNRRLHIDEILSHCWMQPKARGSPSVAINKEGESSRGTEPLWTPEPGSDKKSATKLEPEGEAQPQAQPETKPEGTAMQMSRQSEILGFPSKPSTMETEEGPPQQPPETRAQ
CSNK1A1L, construct: Full length, sequence (Q8N752 whole entry, looked up): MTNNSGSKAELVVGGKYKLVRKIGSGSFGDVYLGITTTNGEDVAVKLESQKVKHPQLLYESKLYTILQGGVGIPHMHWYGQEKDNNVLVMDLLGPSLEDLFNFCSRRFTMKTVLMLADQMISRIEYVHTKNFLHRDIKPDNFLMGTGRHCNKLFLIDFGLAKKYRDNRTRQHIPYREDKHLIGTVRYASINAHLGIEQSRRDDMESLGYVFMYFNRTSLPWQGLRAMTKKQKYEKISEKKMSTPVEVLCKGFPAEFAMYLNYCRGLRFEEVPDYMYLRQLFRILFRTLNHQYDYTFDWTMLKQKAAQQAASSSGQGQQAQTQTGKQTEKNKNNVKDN
CDKL1, construct: aa2-304, sequence (Q00532 2-304, looked up): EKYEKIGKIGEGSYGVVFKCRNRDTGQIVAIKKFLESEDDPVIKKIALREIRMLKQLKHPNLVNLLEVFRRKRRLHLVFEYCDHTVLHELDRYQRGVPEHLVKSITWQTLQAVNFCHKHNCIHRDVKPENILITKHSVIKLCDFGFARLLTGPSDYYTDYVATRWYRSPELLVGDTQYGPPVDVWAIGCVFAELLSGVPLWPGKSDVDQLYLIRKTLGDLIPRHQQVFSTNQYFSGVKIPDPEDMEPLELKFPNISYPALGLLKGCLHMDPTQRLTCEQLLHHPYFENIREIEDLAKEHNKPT
ACVR1B, construct: aa150-end, sequence (P36896 150-505, looked up): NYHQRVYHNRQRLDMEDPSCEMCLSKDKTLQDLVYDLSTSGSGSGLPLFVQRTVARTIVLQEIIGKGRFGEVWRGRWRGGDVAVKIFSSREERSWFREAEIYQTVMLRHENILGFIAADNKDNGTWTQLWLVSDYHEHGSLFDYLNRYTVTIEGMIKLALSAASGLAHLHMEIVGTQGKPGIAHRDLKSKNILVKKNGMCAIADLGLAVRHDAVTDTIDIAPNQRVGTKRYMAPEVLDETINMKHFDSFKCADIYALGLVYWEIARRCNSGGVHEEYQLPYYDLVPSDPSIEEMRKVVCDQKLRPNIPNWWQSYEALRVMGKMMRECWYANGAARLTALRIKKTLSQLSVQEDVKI
CIT, construct: aa1-449, sequence (O14578 1-449, looked up): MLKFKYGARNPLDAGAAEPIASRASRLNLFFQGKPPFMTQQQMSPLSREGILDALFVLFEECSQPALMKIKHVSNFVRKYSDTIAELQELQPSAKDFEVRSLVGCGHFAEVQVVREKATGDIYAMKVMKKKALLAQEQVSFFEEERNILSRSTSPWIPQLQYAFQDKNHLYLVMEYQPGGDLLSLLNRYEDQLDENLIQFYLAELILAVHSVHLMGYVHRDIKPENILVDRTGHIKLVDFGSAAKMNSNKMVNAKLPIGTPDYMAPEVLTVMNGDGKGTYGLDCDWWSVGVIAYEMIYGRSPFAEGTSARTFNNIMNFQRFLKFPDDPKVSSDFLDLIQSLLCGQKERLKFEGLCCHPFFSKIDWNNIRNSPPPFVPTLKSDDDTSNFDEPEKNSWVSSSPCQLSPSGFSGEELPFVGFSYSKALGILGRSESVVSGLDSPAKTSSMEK

Row | Substance | relative phosphorylation
1 | CSNK1G3, construct: Full length (from UniProt Q9Y6M4) | 1.48

same assay, conditions: W fixed; at -1

Row | Substance | relative phosphorylation
2 | CIT, construct: aa1-449 (from UniProt O14578) | 0.682
3 | PAK1, construct: aa150-end (from UniProt Q13153) | 0.886
4 | CAMK2D, construct: Full length (from UniProt Q13557) | 0.7
5 | CDKL1, construct: aa2-304 (from UniProt Q00532) | 0.768
6 | ACVR1B, construct: aa150-end (from UniProt P36896) | 0.822
7 | TSSK1B, construct: Full length (from UniProt Q9BXA7) | 0.601
8 | CSNK1A1L, construct: Full length (from UniProt Q8N752) | 0.754
9 | CSNK1G3, construct: Full length (from UniProt Q9Y6M4) | 1.22

same assay, conditions: W fixed; at -2

Row | Substance | relative phosphorylation
10 | CIT, construct: aa1-449 (from UniProt O14578) | 0.407
11 | PAK1, construct: aa150-end (from UniProt Q13153) | 0.369
12 | CAMK2D, construct: Full length (from UniProt Q13557) | 1.74
13 | CDKL1, construct: aa2-304 (from UniProt Q00532) | 0.71
14 | ACVR1B, construct: aa150-end (from UniProt P36896) | 0.592
15 | TSSK1B, construct: Full length (from UniProt Q9BXA7) | 0.401
16 | CSNK1A1L, construct: Full length (from UniProt Q8N752) | 0.681
17 | CSNK1G3, construct: Full length (from UniProt Q9Y6M4) | 0.715

same assay, conditions: W fixed; at -3

Row | Substance | relative phosphorylation
18 | CIT, construct: aa1-449 (from UniProt O14578) | 0.302
19 | PAK1, construct: aa150-end (from UniProt Q13153) | 0.703
20 | CAMK2D, construct: Full length (from UniProt Q13557) | 1.19
21 | CDKL1, construct: aa2-304 (from UniProt Q00532) | 0.539
22 | ACVR1B, construct: aa150-end (from UniProt P36896) | 0.892
23 | TSSK1B, construct: Full length (from UniProt Q9BXA7) | 0.465
24 | CSNK1A1L, construct: Full length (from UniProt Q8N752) | 0.656
25 | CSNK1G3, construct: Full length (from UniProt Q9Y6M4) | 0.581

same assay, conditions: W fixed; at -4

Row | Substance | relative phosphorylation
26 | CIT, construct: aa1-449 (from UniProt O14578) | 0.571
27 | PAK1, construct: aa150-end (from UniProt Q13153) | 0.756
28 | CAMK2D, construct: Full length (from UniProt Q13557) | 1.66
29 | CDKL1, construct: aa2-304 (from UniProt Q00532) | 0.944
30 | ACVR1B, construct: aa150-end (from UniProt P36896) | 1.01
31 | TSSK1B, construct: Full length (from UniProt Q9BXA7) | 0.73
32 | CSNK1A1L, construct: Full length (from UniProt Q8N752) | 0.946
33 | CSNK1G3, construct: Full length (from UniProt Q9Y6M4) | 1.69

same assay, conditions: W fixed; at -5

Row | Substance | relative phosphorylation
34 | CIT, construct: aa1-449 (from UniProt O14578) | 0.591
35 | PAK1, construct: aa150-end (from UniProt Q13153) | 0.668
36 | CAMK2D, construct: Full length (from UniProt Q13557) | 1.68
37 | CDKL1, construct: aa2-304 (from UniProt Q00532) | 0.889
38 | ACVR1B, construct: aa150-end (from UniProt P36896) | 1.19
39 | TSSK1B, construct: Full length (from UniProt Q9BXA7) | 0.734
40 | CSNK1A1L, construct: Full length (from UniProt Q8N752) | 0.928
41 | CSNK1G3, construct: Full length (from UniProt Q9Y6M4) | 1.05

same assay, conditions: Y fixed; at +1

Row | Substance | relative phosphorylation
42 | CIT, construct: aa1-449 (from UniProt O14578) | 1.66
43 | PAK1, construct: aa150-end (from UniProt Q13153) | 1.19
44 | CAMK2D, construct: Full length (from UniProt Q13557) | 0.9
45 | CDKL1, construct: aa2-304 (from UniProt Q00532) | 0.941
46 | ACVR1B, construct: aa150-end (from UniProt P36896) | 1.23
47 | TSSK1B, construct: Full length (from UniProt Q9BXA7) | 1.19
48 | CSNK1A1L, construct: Full length (from UniProt Q8N752) | 0.854
49 | CSNK1G3, construct: Full length (from UniProt Q9Y6M4) | 0.855

same assay, conditions: Y fixed; at +2

Row | Substance | relative phosphorylation
50 | CIT, construct: aa1-449 (from UniProt O14578) | 1.33
51 | PAK1, construct: aa150-end (from UniProt Q13153) | 2.62
52 | CAMK2D, construct: Full length (from UniProt Q13557) | 0.702
53 | CDKL1, construct: aa2-304 (from UniProt Q00532) | 0.931
54 | ACVR1B, construct: aa150-end (from UniProt P36896) | 1.13
55 | TSSK1B, construct: Full length (from UniProt Q9BXA7) | 0.96
56 | CSNK1A1L, construct: Full length (from UniProt Q8N752) | 1.4
57 | CSNK1G3, construct: Full length (from UniProt Q9Y6M4) | 1.59

same assay, conditions: Y fixed; at +3

Row | Substance | relative phosphorylation
58 | CIT, construct: aa1-449 (from UniProt O14578) | 1.17
59 | PAK1, construct: aa150-end (from UniProt Q13153) | 1.22
60 | CAMK2D, construct: Full length (from UniProt Q13557) | 0.963
61 | CDKL1, construct: aa2-304 (from UniProt Q00532) | 1.02
62 | ACVR1B, construct: aa150-end (from UniProt P36896) | 0.95
63 | TSSK1B, construct: Full length (from UniProt Q9BXA7) | 0.851
64 | CSNK1A1L, construct: Full length (from UniProt Q8N752) | 1.15
65 | CSNK1G3, construct: Full length (from UniProt Q9Y6M4) | 0.941

same assay, conditions: Y fixed; at +4

Row | Substance | relative phosphorylation
66 | CIT, construct: aa1-449 (from UniProt O14578) | 0.979
67 | PAK1, construct: aa150-end (from UniProt Q13153) | 0.652
68 | CAMK2D, construct: Full length (from UniProt Q13557) | 0.88
69 | CDKL1, construct: aa2-304 (from UniProt Q00532) | 0.907
70 | ACVR1B, construct: aa150-end (from UniProt P36896) | 1.01
71 | TSSK1B, construct: Full length (from UniProt Q9BXA7) | 0.62
72 | CSNK1A1L, construct: Full length (from UniProt Q8N752) | 1.07
73 | CSNK1G3, construct: Full length (from UniProt Q9Y6M4) | 1.33

same assay, conditions: Y fixed; at -1

Row | Substance | relative phosphorylation
74 | CIT, construct: aa1-449 (from UniProt O14578) | 1.17
75 | PAK1, construct: aa150-end (from UniProt Q13153) | 1.22
76 | CAMK2D, construct: Full length (from UniProt Q13557) | 1.05
77 | CDKL1, construct: aa2-304 (from UniProt Q00532) | 0.884
78 | ACVR1B, construct: aa150-end (from UniProt P36896) | 0.991
79 | TSSK1B, construct: Full length (from UniProt Q9BXA7) | 0.817
80 | CSNK1A1L, construct: Full length (from UniProt Q8N752) | 0.94
81 | CSNK1G3, construct: Full length (from UniProt Q9Y6M4) | 0.974

same assay, conditions: Y fixed; at -2

Row | Substance | relative phosphorylation
82 | CIT, construct: aa1-449 (from UniProt O14578) | 0.389
83 | PAK1, construct: aa150-end (from UniProt Q13153) | 0.6
84 | CAMK2D, construct: Full length (from UniProt Q13557) | 0.949
85 | CDKL1, construct: aa2-304 (from UniProt Q00532) | 0.698
86 | ACVR1B, construct: aa150-end (from UniProt P36896) | 0.49
